Data as given in US20200055939A1 (Genentech, published 2020).

T1: MICA*008 on MEL-JUSO cells (human, UniProt Q29983 24-317)
T1 chain: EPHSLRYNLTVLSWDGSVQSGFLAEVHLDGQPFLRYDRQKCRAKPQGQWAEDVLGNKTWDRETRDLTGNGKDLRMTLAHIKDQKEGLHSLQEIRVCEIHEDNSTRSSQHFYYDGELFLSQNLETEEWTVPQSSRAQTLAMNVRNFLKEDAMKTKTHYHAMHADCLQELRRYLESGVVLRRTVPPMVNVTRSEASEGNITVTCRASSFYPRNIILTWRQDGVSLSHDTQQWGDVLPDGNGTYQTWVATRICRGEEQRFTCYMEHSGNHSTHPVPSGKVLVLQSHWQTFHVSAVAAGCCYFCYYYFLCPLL

T2: huMICA*002 alpha 3-his (human)
T2 construct: whole construct entry: GS, alpha 3 domain, GNS, His8; also called MICA002.His; MICA*002 alpha3 construct
T2 chain: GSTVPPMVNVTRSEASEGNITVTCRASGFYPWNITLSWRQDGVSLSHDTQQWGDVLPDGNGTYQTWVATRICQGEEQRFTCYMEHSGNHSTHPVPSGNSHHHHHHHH

T3: huMICA*004 alpha 3-his (human)
T3 construct: whole construct entry: GS, alpha 3 domain, GNS, His8; also called MICA004.His; MICA*004 alpha3 construct
T3 chain: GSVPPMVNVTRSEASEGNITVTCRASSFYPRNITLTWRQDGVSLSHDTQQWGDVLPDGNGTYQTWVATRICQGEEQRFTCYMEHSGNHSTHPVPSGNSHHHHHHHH

T4: huMICA*008 alpha 3-his (human)
T4 construct: whole construct entry: GS, alpha 3 domain (Thr204-Ser297), GNS, His8; also the construct of the FPOP experiment; also called MICA008.His; MICA*008 alpha3 construct
T4 chain: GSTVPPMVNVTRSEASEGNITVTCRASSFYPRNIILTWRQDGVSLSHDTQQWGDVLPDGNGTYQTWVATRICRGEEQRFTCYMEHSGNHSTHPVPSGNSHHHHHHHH

T5: huMICB*005 alpha 3-his (human)
T5 construct: whole construct entry: GS, alpha 3 domain, GNS, His8; also called MICB005.His; MICB*005 alpha3 construct
T5 chain: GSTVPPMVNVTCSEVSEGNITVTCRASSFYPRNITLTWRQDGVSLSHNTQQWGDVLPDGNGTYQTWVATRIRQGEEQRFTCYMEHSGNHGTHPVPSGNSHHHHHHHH


Tests used:
[1] = target: T1, MICA*008 on MEL-JUSO cells; experiment: cell-based or functional assay
[2] = target: MICA*004 on HCC1534 cells (human, UniProt Q29983 24-383); experiment: cell-based or functional assay
[3] = target: MICB*005 on HCC1534 cells (human); experiment: cell-based or functional assay
huMICA*002 alpha 3-his = target: T2, huMICA*002 alpha 3-his; experiment: SPR, Biacore 8K, antibody on Protein A chip
Description: (§1) A Protein A sensorchip (GE Healthcare) was used following manufacturer provided protocols to capture humanized anti-MICA/B antibodies. The MICA/B alleles were passed over. Antibody binding was measured to human MICA 002, 004, 008 and MICB 005 alpha 3 domains (His tagged, in-house). Sensograms for binding of MICA/B were recorded using an injection time of 2 minutes with a flow rate of 30 ml/min, at a temperature of 25° C., and with a running buffer of 10 mM HEPES, pH 7.4, 150 mM NaCl, 3mM EDTA, and 0.005% Tween 20. After injection, disassociation of the alpha 3 domain from the antibody was monitored for 10 minutes in running buffer. The surface was regenerated between binding cycles with a 60 ul injection of 10 mM Glycine HCl pH 1.5. […] The data was analyzed using a 1:1 binding model. Sensograms of MICA alleles binding to captured anti-MICA antibody were used to calculate the dissociation constant (Kd).

huMICA*004 alpha 3-his = target: T3, huMICA*004 alpha 3-his; experiment: SPR, Biacore 8K, antibody on Protein A chip
Description: as §1

huMICA*008 alpha 3-his = target: T4, huMICA*008 alpha 3-his; experiment: SPR, Biacore 8K, antibody on Protein A chip
Description: as §1

huMICB*005 alpha 3-his = target: T5, huMICB*005 alpha 3-his; experiment: SPR, Biacore 8K, antibody on Protein A chip
Description: as §1
Wherever % Inhibition is given: test concentration or dose not given here.

% Inhibition [1] | % Inhibition [2] | % Inhibition [3] | Kd (huMICA*002 alpha 3-his) | Kd (huMICA*004 alpha 3-his) | Kd (huMICA*008 alpha 3-his) | Kd (huMICB*005 alpha 3-his) | Binder
52% | 42% | 35% | 11.3 nM | 9.41 nM | 9.08 nM | 18.8 nM | 1D5v8 (antibody, IgG1, V domains shown, humanized variant of 1D5) VH: EVQLVQSGAEVKKPGASVKVSCKASGYAFTSQNIYWVRQAPGQGLEWIGYIEPYNVVPMYNPKFKGRVTITRDTSTSTAYLELSSLRSEDTAVYYCARSGSSNFDYWGQGTLVTVSS VL: EIVLTQSPDFQSVTPKEKVTITCSASSSISSHYLHWYQQKPDQSPKLLIKRTSNLASGVPSRFSGSGSGTDFTLTINSLEAEDAATYYCQQGSSLPLTFGQGTKVEIK
56% | 52% | 36% | 1.09 nM | 0.83 nM | 0.78 nM | 1.38 nM | 1D5v11 (antibody, IgG1, V domains shown, humanized variant of 1D5) VH: EIQLVQSGAEVKKPGASVKVSCKASGYAFTSQNIYWVRQAPGQGLEWIGYIEPYNVVPMYNPKFKGRATLTVDKSTSTAYLELSSLRSEDTAVYYCARSGSSNFDYWGQGTLVTVSS VL: DIQLTQSPSSLSASVGDRVTITCSASSSISSHYLHWYQQKPGKSPKLLIYRTSNLASGVPSRFSGSGSGTDYTLTISSLQPEDFATYYCQQGSSLPLTFGQGTKVEIK
62% | 55% | 25% | 1.35 nM | 1.08 nM | 0.99 nM | 1.98 nM | 1D5v21 (antibody, IgG1, V domains shown, humanized variant of 1D5) VH: EIQLVQSGAEVKKPGASVKVSCKASGYAFTSQNIYWVRQAPGQGLEWIGYIEPYNVVPMYNPKFKGRATITVDKSTSTAYLELSSLRSEDTAVYYCARSGSSNFDYWGQGTLVTVSS VL: DIQLTQSPSSLSASVGDRVTITCSASSSISSHYLHWYQQKPGKSPKLLIYRTSNLASGVPSRFSGSGSGTDYTLTISSLQPEDFATYYCQQGSSLPLTFGQGTKVEIK
51% | 49% | 43% | 1.2 nM | 0.91 nM | 0.85 nM | 1.48 nM | 1D5v13 (antibody, IgG1, V domains shown, humanized variant of 1D5) VH: EIQLVQSGAEVKKPGASVKVSCKASGYAFTSQNIYWVRQAPGQGLEWIGYIEPYNVVPMYNPKFKGRATLTVDKSTSTAYMELRSLRSDDTAVYYCARSGSSNFDYWGQGTLVTVSS VL: DIQMTQSPSSLSASVGDRVTITCSASSSISSHYLHWYQQKPGKAPKLLIYRTSNLASGVPSRFSGSGSGTDFTLTISSLQPEDFATYYCQQGSSLPLTFGQGTKVEIK
58% | 62% | 43% | 1.44 nM | 1.08 nM | 1.05 nM | 1.98 nM | 1D5v10 (antibody, IgG1, V domains shown, humanized variant of 1D5) VH: EVQLVQSGAEVKKPGASVKVSCKASGYAFTSQNIYWVRQAPGQGLEWMGYIEPYNVVPMYNPKFKGRVTMTTDTSTSTAYMELRSLRSDDTAVYYCARSGSSNFDYWGQGTLVTVSS VL: DIQLTQSPSSLSASVGDRVTITCSASSSISSHYLHWYQQKPGKSPKLLIYRTSNLASGVPSRFSGSGSGTDYTLTISSLQPEDFATYYCQQGSSLPLTFGQGTKVEIK
57% | 44% | 40% | 1.16 nM | 0.88 nM | 0.83 nM | 1.51 nM | 1D5v19 (antibody, IgG1, V domains shown, humanized variant of 1D5) VH: EVQLVQSGAEVKKPGASVKVSCKASGYAFTSQNIYWVRQAPGQGLEWIGYIEPYNVVPMYNPKFKGRATLTVDKSTSTAYLELSSLRSEDTAVYYCARSGSSNFDYWGQGTLVTVSS VL: DIQLTQSPSSLSASVGDRVTITCSASSSISSHYLHWYQQKPGKSPKLLIYRTSNLASGVPSRFSGSGSGTDYTLTISSLQPEDFATYYCQQGSSLPLTFGQGTKVEIK
44% | 50% | 27% | 4.64 nM | 3.91 nM | 3.66 nM | 9.16 nM | 1D5v12 (antibody, IgG1, V domains shown, humanized variant of 1D5) VH: EVQLVQSGAEVKKPGASVKVSCKASGYAFTSQNIYWVRQAPGQGLEWIGYIEPYNVVPMYNPKFKGRVTITRDTSTSTAYLELSSLRSEDTAVYYCARSGSSNFDYWGQGTLVTVSS VL: DIQLTQSPSSLSASVGDRVTITCSASSSISSHYLHWYQQKPGKSPKLLIYRTSNLASGVPSRFSGSGSGTDYTLTISSLQPEDFATYYCQQGSSLPLTFGQGTKVEIK
51% | 50% | 51% | 4.09 nM | 3.42 nM | 3.21 nM | 8.37 nM | 1D5v16 (antibody, IgG1, V domains shown, humanized variant of 1D5) VH: EVQLVQSGAEVKKPGASVKVSCKASGYAFTSQNIYWVRQAPGQGLEWIGYIEPYNVVPMYNPKFKGRVTITRDTSTSTAYLELSSLRSEDTAVYYCARSGSSNFDYWGQGTLVTVSS VL: DIQMTQSPSSLSASVGDRVTITCSASSSISSHYLHWYQQKPGKAPKLLIYRTSNLASGVPSRFSGSGSGTDFTLTISSLQPEDFATYYCQQGSSLPLTFGQGTKVEIK
49% | 53% | 41% | 1.31 nM | 0.95 nM | 0.87 nM | 1.51 nM | 1D5v9 (antibody, IgG1, V domains shown, humanized variant of 1D5) VH: EIQLVQSGAEVKKPGASVKVSCKASGYAFTSQNIYWVRQAPGQGLEWIGYIEPYNVVPMYNPKFKGRATLTVDKSTSTAYMELRSLRSDDTAVYYCARSGSSNFDYWGQGTLVTVSS VL: DIQLTQSPSSLSASVGDRVTITCSASSSISSHYLHWYQQKPGKSPKLLIYRTSNLASGVPSRFSGSGSGTDYTLTISSLQPEDFATYYCQQGSSLPLTFGQGTKVEIK
64% | 47% | 41% | 1.04 nM | 0.79 nM | 0.75 nM | 1.41 nM | 1D5v18 (antibody, IgG1, V domains shown, humanized variant of 1D5) VH: EIQLVQSGAEVKKPGASVKVSCKASGYAFTSQNIYWVRQAPGQGLEWIGYIEPYNVVPMYNPKFKGRATLTVDKSTSTAYLELSSLRSEDTAVYYCARSGSSNFDYWGQGTLVTVSS VL: DIQLTQSPSSLSASVGDRVTITCSASSSISSHYLHWYQQKPGKSPKLLIYRTSNLASGVPSRFSGSGSGTDFTLTISSLQPEDFATYYCQQGSSLPLTFGQGTKVEIK
48% | 45% | 39% | 1.06 nM | 0.81 nM | 0.76 nM | 1.26 nM | 1D5v15 (antibody, IgG1, V domains shown, humanized variant of 1D5) VH: EIQLVQSGAEVKKPGASVKVSCKASGYAFTSQNIYWVRQAPGQGLEWIGYIEPYNVVPMYNPKFKGRATLTVDKSTSTAYLELSSLRSEDTAVYYCARSGSSNFDYWGQGTLVTVSS VL: DIQMTQSPSSLSASVGDRVTITCSASSSISSHYLHWYQQKPGKAPKLLIYRTSNLASGVPSRFSGSGSGTDFTLTISSLQPEDFATYYCQQGSSLPLTFGQGTKVEIK
68% | 52% | 50% | 0.91 nM | 0.68 nM | 0.64 nM | 1.01 nM | 1D5v17 (antibody, IgG1, V domains shown, humanized variant of 1D5) VH: EIQLVQSGAEVKKPGASVKVSCKASGYAFTSQNIYWVRQAPGQGLEWIGYIEPYNVVPMYNPKFKGRATLTVDKSTSTAYLELSSLRSEDTAVYYCARSGSSNFDYWGQGTLVTVSS VL: DIQMTQSPSSLSASVGDRVTITCSASSSISSHYLHWYQQKPGKSPKLLIYRTSNLASGVPSRFSGSGSGTDYTLTISSLQPEDFATYYCQQGSSLPLTFGQGTKVEIK
56% | 46% | 39% | 1.14 nM | 0.88 nM | 0.83 nM | 1.57 nM | 1D5v20 (antibody, IgG1, V domains shown, humanized variant of 1D5) VH: EIQLVQSGAEVKKPGASVKVSCKASGYAFTSQNIYWVRQAPGQGLEWIGYIEPYNVVPMYNPKFKGRVTLTVDKSTSTAYLELSSLRSEDTAVYYCARSGSSNFDYWGQGTLVTVSS VL: DIQLTQSPSSLSASVGDRVTITCSASSSISSHYLHWYQQKPGKSPKLLIYRTSNLASGVPSRFSGSGSGTDYTLTISSLQPEDFATYYCQQGSSLPLTFGQGTKVEIK
